Values quoted from earlier work as cited in patent US20220273793A1, “HORSE IL-31 INDUCED PRURITUS MODEL” (priority 2021, published 2022).

Experiments:
[1] = target: T1, IL-31 (Canis lupus familiaris, UniProt A0A8I3S3D1); conditions: dogs with atopic dermatitis; cited from earlier work
T1 construct: host or cells: endogenous IL-31 of client dogs with atopic dermatitis
T1 sequence (A0A8I3S3D1 24-159): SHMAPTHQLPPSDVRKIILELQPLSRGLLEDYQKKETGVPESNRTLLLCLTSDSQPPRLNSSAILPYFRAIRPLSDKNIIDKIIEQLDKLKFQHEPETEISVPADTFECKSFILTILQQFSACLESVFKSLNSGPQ

[2] = system: beagle dogs; conditions: 1.5 μg/kg intravenous challenge dose; cited from earlier work

B1: Cytopoint: canine anti-IL-31 monoclonal antibody (mAb) produced by Zoetis Inc. (antibody, chains of the INN, looked up, V domains shown)
VH: EVQLVESGGDLVKPGGSLRLSCVASGFTFSNYGMSWVRQAPGKGLQWVATISYGGSYTYYPDNIKGRFTISRDNAKNTLYLQMNSLRAEDTAMYYCVRGYGYDTMDYWGQGTLVTVSS
VL: EIVMTQSPASLSLSQEEKVTITCKASQSVSFAGTGLMHWYQQKPGQAPKLLIYRASNLEAGVPSRFSGSGSGTDFSFTISSLEPEDVAVYYCQQSREYPWTFGQGTKLEIK
Q: With B1 as the molecule, how does the “effect on pruritus and skin lesions” value [1] read?
A: reduce pruritus and skin lesions

B2: recombinant canine IL-31: recombinant canine IL-31 used as intravenous challenge in beagle dogs (protein)
chain: SHMAPTHQLPPSDVRKIILELQPLSRGLLEDYQKKETGVPESNRTLLLCLTSDSQPPRLNSSAILPYFRAIRPLSDKNIIDKIIEQLDKLKFQHEPETEISVPADTFECKSFILTILQQFSACLESVFKSLNSGPQ
Q: With B2 as the molecule, how does the pruritus duration [2] read?
A: < 24 h
